Measured values as given in article PMC9461191 (Journal of Translational Medicine, 2022).
Blank lines part the entries; values can stand above or below the molecule they belong to.

Legend:
[1] = target: HuB6 (human); assay: SPR; HuB6 and human FcγRs; who was immobilised not given; n = 3
[2] = target: HuB6; assay: flow cytometry on cells; conditions: Ab 10 µg/ml (highest point of the titration); antigen transfected into Expi293 cells; parent: est. 17000; read off a plot
[3] = target: urelumab; assay: flow cytometry on cells; conditions: Ab 10 µg/ml (highest point of the titration); antigen transfected into Expi293 cells; parent: est. 17000; read off a plot
[4] = target: utomilumab; assay: flow cytometry on cells; conditions: Ab 10 µg/ml (highest point of the titration); antigen transfected into Expi293 cells; parent: est. 14000; read off a plot
[5] = target: T1, cynomolgus 4-1BB-mFc (Macaca fascicularis, UniProt A9YYE7); assay: ELISA; indirect ELISA; plates coated with 4-1BB-mFc (1 μg/mL mouse, 350 ng/mL cynomolgus) in carbonate buffer; serially diluted antibodies, room temperature 2 h; HRP goat anti-human Fc; conditions: both partners purified
T1 construct: cynomolgus monkey 4-1BB, UniProt A9YYE7, extracellular domain; also called Cy4-1BB; cynomolgus monkey 4-1BB; source: Expi293F, transfected, purified (MabSelect PrismA); not shown: Fc (mouse), C-terminal, kept

[6] = target: T2, mouse 4-1BB-ECD-mFc (Mus musculus, UniProt P20334); assay: as above; conditions: both partners purified
T2 construct: mouse 4-1BB, UniProt P20334, extracellular domain; also called Mu4-1BB; murine 4-1BB; source: Expi293F, transfected, purified (MabSelect PrismA); not shown: Fc (mouse), C-terminal, kept
T2 sequence (P20334 24-187): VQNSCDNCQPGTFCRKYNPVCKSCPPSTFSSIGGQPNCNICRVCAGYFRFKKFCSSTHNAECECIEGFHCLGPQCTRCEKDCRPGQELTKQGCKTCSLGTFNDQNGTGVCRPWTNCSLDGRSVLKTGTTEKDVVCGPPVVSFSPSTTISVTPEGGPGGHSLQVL

[7] = target: T3, Hu4-1BB-His (Homo sapiens, UniProt Q07011); assay: BLI; Octet Red96, 25 °C; antibody loaded on AHC biosensors; Hu4-1BB-His 200-12.5 nM in 1 × PBS; 500 s association, 30 min dissociation; conditions: both partners purified
T3 construct: human 4-1BB (CD137, TNFRSF9), His-tagged, bought; No catalogue number is printed; also called human 4-1BB; source: bought: Acro biosystems

[8] = target: T4, human 4-1BB ECD (Homo sapiens, UniProt Q07011); assay: SPR; Biacore T200, 25 °C; human 4-1BB ECD amine-coupled on a CM5 chip to 300 RU; antibody from 80 μg/mL in two-fold dilutions injected at 30 μL/min; 1:1 Langmuir model; conditions: both partners purified
T4 construct: human 4-1BB (CD137, TNFRSF9), extracellular domain, coupled to the CM5 chip for SPR; also called CD137; TNFRSF9
T4 sequence (Q07011 24-186): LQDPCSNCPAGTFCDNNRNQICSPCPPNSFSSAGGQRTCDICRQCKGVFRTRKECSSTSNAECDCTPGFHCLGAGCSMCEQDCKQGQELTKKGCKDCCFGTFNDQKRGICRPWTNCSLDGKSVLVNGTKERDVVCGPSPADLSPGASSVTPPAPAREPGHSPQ

Chain of HuB6 (human) (heavy, as listed by the source, chain 1 of 2): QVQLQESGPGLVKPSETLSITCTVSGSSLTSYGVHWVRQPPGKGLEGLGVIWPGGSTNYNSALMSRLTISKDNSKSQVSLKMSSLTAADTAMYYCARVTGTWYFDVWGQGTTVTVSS
Chain of HuB6 (human) (light, as listed by the source, chain 2 of 2): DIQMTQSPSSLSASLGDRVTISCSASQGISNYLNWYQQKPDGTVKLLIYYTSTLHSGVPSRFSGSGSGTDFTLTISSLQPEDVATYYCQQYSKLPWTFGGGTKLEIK

- Kd [1]: 8.86 nM
- koff [1]: 0.0045 s⁻¹
- kon [1]: 531000 M⁻¹ s⁻¹
Molecule: human FcγRIA (from UniProt P12314 16-374) (receptor)

- response [2]: 19000 Mean FITC
- response [3]: 17000 Mean FITC
- response [4]: 2600 Mean FITC
Molecule: wild-type (WT) human 4-1BB antigen on Expi293F cells (from UniProt Q07011) M101

- response [2]: 15000 Mean FITC
- response [3]: 900 Mean FITC
- response [4]: 13000 Mean FITC
Molecule: wild-type (WT) human 4-1BB antigen on Expi293F cells (from UniProt Q07011) N42

- response [2]: 20000 Mean FITC
- response [3]: 17000 Mean FITC
- response [4]: 3900 Mean FITC
Molecule: wild-type (WT) human 4-1BB antigen on Expi293F cells (from UniProt Q07011) I132

- EC50 [5]: 0.038 nM
- binding result [6]: no binding
B1: utomilumab (antibody, V domains shown)
VH: EVQLVQSGAEVKKPGESLRISCKGSGYSFSTYWISWVRQMPGKGLEWMGKIYPGDSYTNYSPSFQGQVTISADKSISTAYLQWSSLKASDTAMYYCARGYGIFDYWGQGTLVTVSS
VL: SYELTQPPSVSVSPGQTASITCSGDNIGDQYAHWYQQKPGQSPVLVIYQDKNRPSGIPERFSGSNSGNTATLTISGTQAMDEADYYCATYTGFGSLAVFGGGTKLTVL
notes: IgG2; IgG2 mAb; also called PF-05082566; utomilumab-IgG2; source: Expi293F, transfected, purified (MabSelect PrismA)

- Kd [7]: 5.76 ± 0.85 nM
- Kd [8]: 5.34 ± 0.49 nM
- binding result [6]: no binding
B2: urelumab (antibody, V domains shown)
VH: QVQLQQWGAGLLKPSETLSLTCAVYGGSFSGYYWSWIRQSPEKGLEWIGEINHGGYVTYNPSLESRVTISVDTSKNQFSLKLSSVTAADTAVYYCARDYGPGNYDWYFDLWGRGTLVTVSS
VL: EIVLTQSPATLSLSPGERATLSCRASQSVSSYLAWYQQKPGQAPRLLIYDASNRATGIPARFSGSGSGTDFTLTISSLEPEDFAVYYCQQRSNWPPALTFGGGTKVEIK
notes: IgG4; IgG4 mAb; also called BMS-663513; urelumab-IgG4; source: Expi293F, transfected, purified (MabSelect PrismA)
